Measurements taken from publication PMC6614843 (2019).

Legend:
[1] = biological target: T1, Polβ(T304I), purified recombinant (human, UniProt P06746 1-335, T304I); assay: SPR; mean of repeats
[2] = biological target: T2, Polβ(WT), purified recombinant (human, UniProt P06746 1-335); assay: SPR; mean of repeats
[3] = biological target: T1, Polβ(T304I), purified recombinant; assay: SPR; representative experiment
[4] = biological target: T2, Polβ(WT), purified recombinant; assay: SPR; representative experiment

- Kd [1]: 3.3 µM
- Kd [2]: 534 nM
- Kd [3]: 3.65 µM
- Kd [4]: 358 nM
B1: NTD-XRCC1(1-151)-His (domain or fragment)
chain: MPEIRLRHVVSCSSQDSTHCAENLLKADTYRKWRAAKAGEKTISVVLQLEKEEQIHSVDIGNDGSAFVEVLVGSSAGGAGEQDYEVLLVTSSFMSPSESRSGSNPNRVRMFGPDKLVRAAAEKRWDRVKIVCSQPYSKDSPFGLSFVRFHS
